The values below come from publication PMC7761469.

In this assay the target is epidermal growth factor receptor (EGFR) (human (endogenous in LNCaP, DU145 and PC-3)) (UniProt P00533). Description: flow cytometry on cells.

For targeted toxin EGF-PE40, the fold reduction of binding compared to EGF lay within 28.6 to 76.1 fold.
